The results in this text go back to article PMC4561914 (Scientific Reports, 2015).

This series concerns the molecule itself. The experiment in a line: native MS; rBos d 2 in 10 mM ammonium acetate, pH 6.9; protein (monomer) concentration 0-90 μM; monomer-dimer ratio from ion intensities, fit of free monomer against total protein; dimer to monomers.

B1: recombinant bovine dander lipocalin allergen Bos d 2 (natural protein, bovine (cow), UniProt Q28133 17-172, looked up)
chain: QETPAEIDPSKIPGEWRIIYAAADNKDKIVEGGPLRNYYRRIECINDCESLSITFYLKDQGTCLLLTEVAKRQEGYVYVLEFYGTNTLEVIHVSENMLVTYVENYDGERITKMTEGLAKGTSFTPEELEKYQQLNSERGVPNENIENLIKTDNCPP
modifications: a substantial amount of the molecules contained a pyrrolidone carboxylic acid (PCA) formed by cyclization of the N-terminal glutamine; partly oxidized, probably at a single methionine; two disulfide bonds
notes: Bos d 2, bovine (cow) dander lipocalin allergen; also called rBos d 2
In the case of B1, the Kd turned out to be 340 ± 20 µM and the “stoichiometry N” value is 2.
